According to PMC9482650, “Quantitative fragmentomics allow affinity mapping of interactomes” (Nature Communications, 2022):

T1: LNX2_3, Q8N448
T1 sequence (Q8N448 463-564, limits assumed, looked up): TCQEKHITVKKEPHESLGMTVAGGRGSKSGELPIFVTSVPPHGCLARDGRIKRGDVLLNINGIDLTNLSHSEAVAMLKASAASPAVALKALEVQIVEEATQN

T2: SHANK1, Q9Y566
T2 sequence (Q9Y566 658-767, limits assumed, looked up): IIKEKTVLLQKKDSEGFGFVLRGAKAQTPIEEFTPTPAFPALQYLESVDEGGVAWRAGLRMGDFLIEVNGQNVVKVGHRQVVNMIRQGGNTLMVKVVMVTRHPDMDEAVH

T3: LIN7C, Q9NUP9
T3 sequence (Q9NUP9 88-185, limits assumed, looked up): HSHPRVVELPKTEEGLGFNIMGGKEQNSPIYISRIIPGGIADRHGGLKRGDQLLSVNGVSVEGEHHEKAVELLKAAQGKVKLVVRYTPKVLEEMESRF

T4: TJP3_3, O95049
T4 sequence (O95049 375-456, limits assumed, looked up): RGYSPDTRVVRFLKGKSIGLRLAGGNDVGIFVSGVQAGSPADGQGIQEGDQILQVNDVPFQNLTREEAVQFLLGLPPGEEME

T5: APBA1_2, Q02410
T5 sequence (Q02410 742-832, limits assumed, looked up): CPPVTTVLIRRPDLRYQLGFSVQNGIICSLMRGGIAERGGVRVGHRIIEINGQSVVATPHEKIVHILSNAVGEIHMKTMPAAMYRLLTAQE

T6: ARHGAP21, Q5T5U3
T6 sequence (Q5T5U3 45-169, limits assumed, looked up): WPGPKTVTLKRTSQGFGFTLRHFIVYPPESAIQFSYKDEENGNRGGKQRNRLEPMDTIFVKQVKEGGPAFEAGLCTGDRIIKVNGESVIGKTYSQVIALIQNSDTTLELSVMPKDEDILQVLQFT

T7: APBA1_1, Q02410
T7 sequence (Q02410 651-752, limits assumed, looked up): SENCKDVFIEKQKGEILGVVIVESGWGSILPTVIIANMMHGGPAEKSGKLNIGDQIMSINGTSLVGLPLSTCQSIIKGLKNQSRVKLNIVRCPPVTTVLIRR

T8: ARHGEF11, O15085
T8 sequence (O15085 42-136, limits assumed, looked up): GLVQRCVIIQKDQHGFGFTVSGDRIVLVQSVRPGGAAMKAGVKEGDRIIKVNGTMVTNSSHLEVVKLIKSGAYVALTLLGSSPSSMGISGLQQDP

T9: RAPGEF6, Q8TEU7
T9 sequence (Q8TEU7 525-625, limits assumed, looked up): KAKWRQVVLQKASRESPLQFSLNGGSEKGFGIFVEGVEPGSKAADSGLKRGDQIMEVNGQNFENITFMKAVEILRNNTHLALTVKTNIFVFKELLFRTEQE

T10: LRRC7, Q96NW7
T10 sequence (Q96NW7 1440-1537, limits assumed, looked up): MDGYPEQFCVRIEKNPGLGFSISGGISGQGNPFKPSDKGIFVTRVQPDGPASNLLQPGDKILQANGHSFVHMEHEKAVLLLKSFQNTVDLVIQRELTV


Experiments:
Assay in all cases: holdup assay
Parameters in all cases: key: below the threshold = too weak to quantify, mostly under pKd 3.1 to 4
Settings in all cases: plain residues with an end cap or a label only (N-terminal biotin on a linker: ado-ado)
[1] = target: T1, LNX2_3, Q8N448
[2] = target: MAGI2_3, Q86UL8
Sequence of MAGI2_3, Q86UL8 (Q86UL8 600-682): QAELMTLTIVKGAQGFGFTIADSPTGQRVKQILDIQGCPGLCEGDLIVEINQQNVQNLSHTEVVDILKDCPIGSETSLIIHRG

[3] = target: Inadl_2, Q8NI35
Sequence of Inadl_2, Q8NI35 (Q8NI35 238-335): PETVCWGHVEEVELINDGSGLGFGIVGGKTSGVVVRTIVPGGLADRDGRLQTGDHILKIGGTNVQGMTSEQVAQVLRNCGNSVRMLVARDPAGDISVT

[4] = target: T2, SHANK1, Q9Y566
[5] = target: T3, LIN7C, Q9NUP9
[6] = target: NHERF4_2, Q86UT5
Sequence of NHERF4_2, Q86UT5 (Q86UT5 220-308): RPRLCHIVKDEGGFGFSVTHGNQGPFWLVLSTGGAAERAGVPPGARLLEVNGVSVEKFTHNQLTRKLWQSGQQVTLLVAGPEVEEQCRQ

[7] = target: SCRIB_2, Q14160
Sequence of SCRIB_2, Q14160 (Q14160 857-960): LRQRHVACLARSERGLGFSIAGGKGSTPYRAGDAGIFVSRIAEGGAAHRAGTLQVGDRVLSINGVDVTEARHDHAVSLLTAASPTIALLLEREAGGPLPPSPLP

[8] = target: DLG2_3, Q15700
[9] = target: T4, TJP3_3, O95049
[10] = target: PDLIM1, O00151
Sequence of PDLIM1, O00151 (O00151 1-87): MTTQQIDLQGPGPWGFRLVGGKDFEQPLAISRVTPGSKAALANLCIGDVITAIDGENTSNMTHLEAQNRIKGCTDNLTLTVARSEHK

[11] = target: PTPN3, P26045
Sequence of PTPN3, P26045 (P26045 505-587): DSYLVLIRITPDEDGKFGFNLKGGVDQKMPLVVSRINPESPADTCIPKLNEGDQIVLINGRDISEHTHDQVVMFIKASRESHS

[12] = target: FRMPD2_2, Q68DX3
Sequence of FRMPD2_2, Q68DX3 (Q68DX3 944-1038): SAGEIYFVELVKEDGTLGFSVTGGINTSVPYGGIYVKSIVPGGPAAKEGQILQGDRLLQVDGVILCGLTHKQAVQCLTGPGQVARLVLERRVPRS

[13] = target: T5, APBA1_2, Q02410
[14] = target: T6, ARHGAP21, Q5T5U3
[15] = target: GRID2IP_1, A4D2P6
Sequence of GRID2IP_1, A4D2P6 (A4D2P6 1-87): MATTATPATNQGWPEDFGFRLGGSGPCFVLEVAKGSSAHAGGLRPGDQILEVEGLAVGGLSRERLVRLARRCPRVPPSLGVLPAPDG

[16] = target: PARD3_3, Q8TEW0
Sequence of PARD3_3, Q8TEW0 (Q8TEW0 582-685): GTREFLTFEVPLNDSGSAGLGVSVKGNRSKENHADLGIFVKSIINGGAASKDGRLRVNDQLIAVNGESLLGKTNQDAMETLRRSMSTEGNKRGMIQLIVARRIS

[17] = target: T7, APBA1_1, Q02410
[18] = target: Inadl_4, Q8NI35
Sequence of Inadl_4, Q8NI35 (Q8NI35 547-651): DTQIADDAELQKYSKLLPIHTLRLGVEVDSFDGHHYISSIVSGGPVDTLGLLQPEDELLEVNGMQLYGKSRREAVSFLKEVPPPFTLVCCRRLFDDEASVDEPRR

[19] = target: FRMPD2_1, Q68DX3
Sequence of FRMPD2_1, Q68DX3 (Q68DX3 770-861): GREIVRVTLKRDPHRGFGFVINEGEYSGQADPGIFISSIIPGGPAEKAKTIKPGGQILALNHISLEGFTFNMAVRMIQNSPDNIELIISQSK

[20] = target: LDB3, O75112
Sequence of LDB3, O75112 (O75112 1-94): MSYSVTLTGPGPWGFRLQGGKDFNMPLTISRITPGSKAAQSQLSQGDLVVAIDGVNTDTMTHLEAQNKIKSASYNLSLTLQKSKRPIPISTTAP

[21] = target: T8, ARHGEF11, O15085
[22] = target: NHERF4_1, Q86UT5-2
Sequence of NHERF4_1, Q86UT5-2 (Q86UT5 other isoform, or with tags, fused parts or gaps): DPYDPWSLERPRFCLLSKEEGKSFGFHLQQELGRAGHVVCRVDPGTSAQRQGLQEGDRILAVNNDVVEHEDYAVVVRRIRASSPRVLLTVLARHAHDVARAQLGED

[23] = target: T9, RAPGEF6, Q8TEU7
[24] = target: DLG4_1, P78352
Sequence of DLG4_1, P78352 (P78352 62-152): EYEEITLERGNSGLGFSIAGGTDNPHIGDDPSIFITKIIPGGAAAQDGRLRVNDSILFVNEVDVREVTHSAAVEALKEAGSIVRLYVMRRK

[25] = target: Inadl_8, Q8NI35
Sequence of Inadl_8, Q8NI35 (Q8NI35 1425-1530): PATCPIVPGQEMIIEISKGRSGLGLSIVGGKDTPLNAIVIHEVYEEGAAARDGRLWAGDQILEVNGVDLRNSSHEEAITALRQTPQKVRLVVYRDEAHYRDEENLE

[26] = target: MAGI3_2, Q5TCQ9
Sequence of MAGI3_2, Q5TCQ9 (Q5TCQ9 398-503): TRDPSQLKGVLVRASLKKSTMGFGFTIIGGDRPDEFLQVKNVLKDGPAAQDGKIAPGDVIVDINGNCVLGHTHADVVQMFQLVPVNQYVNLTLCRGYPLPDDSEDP

[27] = target: MAGI2_4, Q86UL8
Sequence of MAGI2_4, Q86UL8 (Q86UL8 772-865): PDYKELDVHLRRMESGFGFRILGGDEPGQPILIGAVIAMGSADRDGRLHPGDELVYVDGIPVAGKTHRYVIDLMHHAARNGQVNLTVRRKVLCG

[28] = target: T10, LRRC7, Q96NW7

pKd [1]	pKd [2]	pKd [3]	pKd [4]	pKd [5]	pKd [6]	pKd [7]	pKd [8]	pKd [9]	pKd [10]	pKd [11]	pKd [12]	pKd [13]	pKd [14]	pKd [15]	pKd [16]	pKd [17]	pKd [18]	pKd [19]	pKd [20]	Binder	also measured
3.48	3.57	3.51	below the threshold	below the threshold	below the threshold	3.49	4.58	below the threshold	3.49	4.31	below the threshold	3.82	4.09	below the threshold	below the threshold	below the threshold	below the threshold	3.54	below the threshold	ATKDKKITTV [EXOC4, Q96A65]	pKd [21]: 4.38; pKd [22]: 3.64; pKd [23]: below the threshold; pKd [24]: 5.25; pKd [25]: 4.42; pKd [26]: 5.31; pKd [27]: 4.51; pKd [28]: 3.48
below the threshold	below the threshold	below the threshold	4.17	3.65	below the threshold	4.28	3.95	below the threshold	below the threshold	4.9	below the threshold	3.59	4.01	below the threshold	below the threshold	below the threshold	below the threshold	below the threshold	below the threshold	SRPHTNETSL [MCC, P23508]	pKd [21]: 4.3; pKd [22]: 4.12; pKd [23]: below the threshold; pKd [24]: below the threshold; pKd [25]: below the threshold; pKd [26]: 4.09; pKd [27]: below the threshold; pKd [28]: below the threshold

Further lines, the binder ahead of its results:

Binder	pKd [1]	pKd [2]	pKd [3]	pKd [4]	pKd [5]	pKd [6]	pKd [7]	pKd [8]	pKd [9]	pKd [10]	pKd [11]	pKd [12]	pKd [13]	pKd [14]	pKd [15]	pKd [16]	pKd [17]	pKd [18]	pKd [19]	pKd [20]	also measured
GDSSRKEYFI [GYPC, P04921]	below the threshold	below the threshold	4.99	below the threshold	below the threshold	below the threshold	3.69	3.84	3.69	below the threshold	4.16	below the threshold	3.73	below the threshold	below the threshold	4.9	3.65	below the threshold	below the threshold	below the threshold	pKd [21]: below the threshold; pKd [22]: below the threshold; pKd [23]: below the threshold; pKd [24]: below the threshold; pKd [25]: below the threshold; pKd [26]: 4.41; pKd [27]: below the threshold; pKd [28]: below the threshold
GSQSQVETEA [FKBP4, Q02790]	below the threshold	below the threshold	below the threshold	3.64	below the threshold	below the threshold	below the threshold	3.82	below the threshold	below the threshold	4.08	below the threshold	below the threshold	below the threshold	below the threshold	below the threshold	below the threshold	below the threshold	3.53	below the threshold	pKd [21]: below the threshold; pKd [22]: 3.97; pKd [23]: below the threshold; pKd [24]: below the threshold; pKd [25]: below the threshold; pKd [26]: below the threshold; pKd [27]: below the threshold; pKd [28]: below the threshold
PSVYSRSQYV [CLDN8, P56748]	below the threshold	below the threshold	below the threshold	below the threshold	below the threshold	below the threshold	below the threshold	below the threshold	3.82	below the threshold	below the threshold	below the threshold	3.92	4.12	below the threshold	below the threshold	below the threshold	below the threshold	4.36	below the threshold	pKd [21]: 4.16; pKd [22]: 4.03; pKd [23]: below the threshold; pKd [24]: below the threshold; pKd [25]: 3.84; pKd [26]: 3.52; pKd [27]: 3.62; pKd [28]: below the threshold
